# Reference: FireProtDB
# Values joined by “and” are separate entries in the source; they are usually repeats but may differ in a detail not shown here. Equal values may be shown once.
# B1: Beta-xylanase, O68541 (parent)
# chain: MNLSRRQLLALTSAGIAMGQASKLAAATKAAEQTGLKSAYKDNFLIGAALNATIASGADERLNTLIAKEFNSITPENCMKWGVLRDAQGQWNWKDADAFVAFGTKHNLHMVGHTLVWHSQIHDEVFKNADGSYISKAALQKKMEEHITTLAGRYKGKLAAWDVVNEAVGDDLKMRDSHWYKIMGDDFIYNAFTLANEVDPKAHLMYNDYNIERTGKREATVEMIERLQKRGMPIHGLGIQGHLGIDTPPIAEIEKSIIAFAKLGLRVHFTELDVDVLPSVWELPVAEVSTRFEYKPERDPYTKGLPQEMQDKLAKRYEDLFKLFIKHSDKIDRATFWGVSDDASWLNGFPIPGRTNYPLLFDRKLQPKDAYFRLLDLKR
# B2: N154D, Q8GB52 (parent)
# chain: MLKKVLSCCIAATFGIYSASSLAQSSVINSTENSQQPIAPLVLASSDDAITDRYIVVLKQPQMLMNDAAGLQQFTQQTVGLMANSFSIKTDDVFDSSIIGFVANLDALQLKQLRRDSRVEYIEQDQILSIDPVVSNEAVQSNAIWGLDRIDQRNLPLDRNYNANFDGFGVTAYVIDTGVNNNHEEFGGRSVSGYDFVDNDADSSDCNGHGTHVAGTIGGSQYGVAKNVNIVGVRVLSCSGSGTTSGVISGVDWVAQNASGPSVANMSLGGGQSTALDSAVQGAIQSGVSFMLAAGNSNADACNTSPARVPSGVTVGSTTSSDSRSSFSNWGSCVDLFAPGSQIKSAWYDGGYKTISGTSMATPHVAGVAALYLQENNGLTPLQLTGLLNSRASENKVSDTRGTTNKLLYSLADSGCEPDCGGPTPGPDPDGKLVSGVPVNGLSGSRGQKDYFYMDLQQGQQLTVVTIGGTGDADLYLRFGDKPTLNTWDCRPYRSGNSETCTVNVTQSGRYHVMLNAYSAYSGLTLQANF
# B3: Elongation factor Ts, P43895 (parent)
# chain: MSQMELIKKLREATGAGMMDVKRALEDAGWDEEKAVQLLRERGAMKAAKKADREAREGIIGHYIHHNQRVGVLVELNCETDFVARNELFQNLAKDLAMHIAMMNPRYVSAEEIPAEELEKERQIYIQAALNEGKPQQIAEKIAEGRLKKYLEEVVLLEQPFVKDDKVKVKELIQQAIAKIGENIVVRRFCRFELGA
# B4: DNA-binding transcriptional dual regulator CRP, P0ACJ8 (parent)
# chain: MVLGKPQTDPTLEWFLSHCHIHKYPSKSTLIHQGEKAETLYYIVKGSVAVLIKDEEGKEMILSYLNQGDFIGELGLFEEGQERSAWVRAKTACEVAEISYKKFRQLIQVNPDILMRLSAQMARRLQVTSEKVGNLAFLDVTGRIAQTLLNLAKQPDAMTHPDGMQIKITRQEIGQIVGCSRETVGRILKMLEDQNLISAHGKTIVVYGTR
# B5: Chemotaxis protein CheY, P0AE67 (parent)
# chain: MADKELKFLVVDDFSTMRRIVRNLLKELGFNNVEEAEDGVDALNKLQAGGYGFVISDWNMPNMDGLELLKTIRADGAMSALPVLMVTAEAKKENIIAAAQAGASGYVVKPFTAATLEEKLNKIFEKLGM
# B6: Guanyl-specific ribonuclease T1, P00651 (parent)
# chain: MMYSKLLTLTTLLLPTALALPSLVERACDYTCGSNCYSSSDVSTAQAAGYQLHEDGETVGSNSYPHKYNNYEGFDFSVSSPYYEWPILSSGDVYSGGSPGADRVVFNENNQLAGVITHTGASGNNFVECT
# B7: Triosephosphate isomerase, P00942 (parent)
# chain: MARTFFVGGNFKLNGSKQSIKEIVERLNTASIPENVEVVICPPATYLDYSVSLVKKPQVTVGAQNAYLKASGAFTGENSVDQIKDVGAKWVILGHSERRSYFHEDDKFIADKTKFALGQGVGVILCIGETLEEKKAGKTLDVVERQLNAVLEEVKDWTNVVVAYEPVWAIGTGLAATPEDAQDIHASIRKFLASKLGDKAASELRILYGGSANGSNAVTFKDKADVDGFLVGGASLKPEFVDIINSRN
# B8: Aspartate aminotransferase, P00509 (parent)
# chain: MFENITAAPADPILGLADLFRADERPGKINLGIGVYKDETGKTPVLTSVKKAEQYLLENETTKNYLGIDGIPEFGRCTQELLFGKGSALINDKRARTAQTPGGTGALRVAADFLAKNTSVKRVWVSNPSWPNHKSVFNSAGLEVREYAYYDAENHTLDFDALINSLNEAQAGDVVLFHGCCHNPTGIDPTLEQWQTLAQLSVEKGWLPLFDFAYQGFARGLEEDAEGLRAFAAMHKELIVASSYSKNFGLYNERVGACTLVAADSETVDRAFSQMKAAIRANYSNPPAHGASVVATILSNDALRAIWEQELTDMRQRIQRMRQLFVNTLQEKGANRDFSFIIKQNGMFSFSGLTKEQVLRLREEFGVYAVASGRVNVAGMTPDNMAPLCEAIVAVL
# Variants of: B1
# Details: Cellvibrio mixtus; pH 7.5; Thermal; DSC; MOPS 20 mM; CaCl2 1 mM; reversible: No; structure 1UR1; whole UniProt chain shown
Variant,Tm,"change of melting temperature, mutant - wild type (higher = more stable)"
A334V G348D,66.6 °C,8 °C
G348D,64.6 °C,6 °C
A334V,62.1 °C,3.5 °C

# Variants of: B2
# Details: Vibrio sp. PA-44; pH 8.6; Thermal; CD; Glycine 25 mM; NaCl and CaCl2 100 mM and 15 mM; structure 1SH7; whole UniProt chain shown
Variant,Tm,"change of melting temperature, mutant - wild type (higher = more stable)"
N154D,66.3 °C and 68.2 °C,2.7 °C and 3.1 °C
N154D K396R,65.1 °C,1.5 °C

# Variants of: B3
# Details: Thermus thermophilus (strain ATCC 27634 / DSM 579 / HB8); pH 7; Thermal; CD; Phosphate 10 mM; reversible: No; structure 1TFE; whole UniProt chain shown
Variant,Tm,"change of melting temperature, mutant - wild type (higher = more stable)"
C190A,105 °C,-10 °C

# Variants of: B4
# Details: Escherichia coli (strain K12); pH 7.9; 20 °C; Thermal; CD; Tris-HCl 50 mM; KCl 100 mM; reversible: yes; structure 1G6N; whole UniProt chain shown
Variant,ddG of mutation (higher = less stable),unfolding free energy
S129A,0.26 kcal/mol,7.06 kcal/mol

# Variants of: B5
# Details: Escherichia coli (strain K12); pH 7; 25 °C; Urea; Fluorescence; Cacodylate 100 mM; structure 1CEY; whole UniProt chain shown
Variant,ddG of mutation (higher = less stable),unfolding free energy
D13A,-2.7 kcal/mol,8.3 kcal/mol
D57A,-3.3 kcal/mol,8.9 kcal/mol

# Variants of: B6
# Details: Aspergillus oryzae (strain ATCC 42149 / RIB 40); pH 7; 48.6 °C; Thermal; Fluorescence; MOPS 30 mM; structure 1RN1; whole UniProt chain shown
row,Variant,ddG of mutation (higher = less stable)
1,Q51K E84A,-0.06 kcal/mol
2,Q51K,-0.93 kcal/mol
3,E84A,0.78 kcal/mol

# Same assay, conditions: Aspergillus oryzae (strain ATCC 42149 / RIB 40); pH 7; Thermal; Fluorescence; MOPS 30 mM; structure 1RN1; whole UniProt chain shown
Variant,Tm,"change of melting temperature, mutant - wild type (higher = more stable)",unfolding enthalpy (van 't Hoff)
Q51K E84A,48.8 °C,-0.5 °C,93 kcal/mol
Q51K,51.7 °C,3.4 °C,107 kcal/mol

# Same assay, conditions: Aspergillus oryzae (strain ATCC 42149 / RIB 40); pH 5; 10 °C; GdnHCl; CD; Na acetate 0.1 M; structure 1RN1; whole UniProt chain shown
Variant,denaturant m value,unfolding free energy
S80G P81N,2.8 kcal/mol/M,11.2 kcal/mol

# Same assay, conditions: Aspergillus oryzae (strain ATCC 42149 / RIB 40); pH 8; 15 °C; Urea; Absorbance; Tris-HCl 0.1 M; NaCl 2.8 M; structure 1RN1; whole UniProt chain shown
row,Variant,unfolding free energy
1,S80G P81N,5.98 kcal/mol

# Same assay, conditions: Aspergillus oryzae (strain ATCC 42149 / RIB 40); pH 8; 15 °C; Urea; CD; Tris-HCl 0.1 M; NaCl 2.5 M; structure 1RN1; whole UniProt chain shown
row,Variant,unfolding free energy
1,S80G P81N,2.44 kcal/mol

# Same assay, conditions: Aspergillus oryzae (strain ATCC 42149 / RIB 40); pH 7; Thermal; Absorbance; Sodium cacodylate 10 mM; reversible: yes; structure 1RN1; whole UniProt chain shown
Variant,Tm,"change of melting temperature, mutant - wild type (higher = more stable)"
W85Y,53.4 °C,-4.2 °C
Y71W W85Y,53.1 °C,-4.5 °C
Y71W,56 °C,-1.6 °C

# Same assay, conditions: Aspergillus oryzae (strain ATCC 42149 / RIB 40); pH 7; Thermal; Absorbance; Sodium cacodylate-D2O 100 mM; reversible: yes; structure 1RN1; whole UniProt chain shown
Variant,Tm,"change of melting temperature, mutant - wild type (higher = more stable)"
W85Y,65 °C,20 °C

# Same assay, conditions: Aspergillus oryzae (strain ATCC 42149 / RIB 40); pH 7.4; 25 °C; Urea; Fluorescence; Sodium acetate 50 mM; reversible: yes; structure 1RN1; whole UniProt chain shown
Variant,denaturant m value,denaturant midpoint (higher = more stable),unfolding free energy
A47G G49A,1.37 kcal/mol/M,4.7 M,6 kcal/mol
A47G,1.3 kcal/mol/M,5.5 M,7.1 kcal/mol

# Same assay, conditions: Aspergillus oryzae (strain ATCC 42149 / RIB 40); pH 7; 25 °C; Urea; Fluorescence; MOPS 30 mM; structure 1RN1; whole UniProt chain shown
Variant,ddG of mutation (higher = less stable),denaturant m value,denaturant midpoint (higher = more stable),unfolding free energy
Q51K,-0.77 kcal/mol,1.21 kcal/mol/M,5.3 M,6.39 kcal/mol
E84A,0.9 kcal/mol,1.2 kcal/mol/M,3.92 M,4.72 kcal/mol

# Same assay, conditions: Aspergillus oryzae (strain ATCC 42149 / RIB 40); pH 7; 25 °C; Thermal; CD; MOPS 30 mM; structure 1RN1; whole UniProt chain shown
row,Variant,ddG of mutation (higher = less stable)
1,D75H,-1.1 kcal/mol

# Variants of: B7
# Details: Saccharomyces cerevisiae (strain ATCC 204508 / S288c); pH 7.4; Thermal; CD; Tris 50 mM; reversible: No; structure 1YPI; whole UniProt chain shown
row,Variant,"change of melting temperature, mutant - wild type (higher = more stable)"
1,C126A,-11.2 °C
2,C126S,-11.2 °C

# Same assay, conditions: Saccharomyces cerevisiae (strain ATCC 204508 / S288c); pH 8.5; Thermal; CD; Tris 50 mM; reversible: No; structure 1YPI; whole UniProt chain shown
row,Variant,"change of melting temperature, mutant - wild type (higher = more stable)"
1,C126S,-13 °C

# Variants of: B8
# Details: Escherichia coli (strain K12); pH 7.5; 25 °C; Urea; enzyme activity; potassium phosphate 20 mM; structure 1AMQ; whole UniProt chain shown
row,Variant,unfolding free energy
1,C180W,6.1 kcal/mol
2,C180Y,7.7 kcal/mol
